Assay results taken from publication PMC4770229, “Nuclear factor 90 uses an ADAR2-like binding mode to recognize specific bases in dsRNA”.

Columns and labels:
NF90dsRBDs-deltaNLS = biological target: T1, NF90dsRBDs-deltaNLS (mouse, UniProt Q9Z1X4 393-592); test: ITC; apparent Kd; unit as printed (mM), possibly uM misprint; 1:2 RNA:protein; EMSA: 20 mM HEPES pH 7.5, 150 mM K acetate, on ice, 1 uM RNA (competition 0.5 uM complex); FA: same buffer, 23.5 C, 250 nM RNA; ITC: 20 mM HEPES pH 7.5, 50 mM NaCl, 25 C; conditions: protein: recombinant; tags: GST removed by TEV; chain copies: 2; blunt
T1 sequence: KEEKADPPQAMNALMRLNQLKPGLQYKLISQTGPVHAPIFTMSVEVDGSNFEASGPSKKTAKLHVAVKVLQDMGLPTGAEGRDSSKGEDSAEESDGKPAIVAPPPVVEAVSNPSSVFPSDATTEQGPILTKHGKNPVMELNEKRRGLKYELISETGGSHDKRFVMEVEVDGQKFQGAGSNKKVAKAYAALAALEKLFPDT

[1] = biological target: NF90-deltaC380;NF45-deltaN28 (with NF90-deltaC380) (mouse?;mouse?, UniProt Q9Z1X4;Q9CXY6 1-380;28-390, |); test: EMSA; EMSA: 20 mM HEPES pH 7.5, 150 mM K acetate, on ice, 1 uM RNA (competition 0.5 uM complex); FA: same buffer, 23.5 C, 250 nM RNA; ITC: 20 mM HEPES pH 7.5, 50 mM NaCl, 25 C; conditions: protein: recombinant;recombinant; tags: ;; copies: 1;1; label: 5' DY781 on strand 1; blunt
NF90dsRBDs = biological target: T2, NF90dsRBDs (mouse, UniProt Q9Z1X4 380-592); test: fluorescence anisotropy; EMSA: 20 mM HEPES pH 7.5, 150 mM K acetate, on ice, 1 uM RNA (competition 0.5 uM complex); FA: same buffer, 23.5 C, 250 nM RNA; ITC: 20 mM HEPES pH 7.5, 50 mM NaCl, 25 C; conditions: protein: recombinant; tags: GST removed by TEV; label: 5' Cy3 on strand 1; blunt
T2 sequence: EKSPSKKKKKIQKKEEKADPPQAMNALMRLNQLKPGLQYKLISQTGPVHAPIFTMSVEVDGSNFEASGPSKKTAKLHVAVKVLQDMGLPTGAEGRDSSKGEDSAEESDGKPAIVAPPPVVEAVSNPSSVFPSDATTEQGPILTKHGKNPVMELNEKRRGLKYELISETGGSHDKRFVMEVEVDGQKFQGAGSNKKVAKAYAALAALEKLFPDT

NF90long;NF45-deltaN28 = NF90long;NF45-deltaN28 (mouse;mouse, UniProt Q9Z1X4;Q9CXY6 1-590;28-390, |); test: as above; conditions: protein: recombinant;recombinant; tags: 6xHis removed by TEV;6xHis removed by TEV; copies: 1;1; label: 5' Cy3 on strand 1; blunt
NF90long;NF45 = NF90long;NF45 (mouse;mouse?, UniProt Q9Z1X4;Q9CXY6 1-590;1-390, |); test: competition; competes DY781 21mer efficiently; EMSA: 20 mM HEPES pH 7.5, 150 mM K acetate, on ice, 1 uM RNA (competition 0.5 uM complex); FA: same buffer, 23.5 C, 250 nM RNA; ITC: 20 mM HEPES pH 7.5, 50 mM NaCl, 25 C; conditions: protein: recombinant;recombinant; tags: 6xHis removed by TEV;6xHis removed by TEV; copies: 1;1; hairpin with mismatches

B1: 18mer dsRNA, unmodified (dsRNA)
RNA 1: UCACUUUCAUAAUGCUGG
RNA 2: CCAGCAUUAUGAAAGUGA
Kd (NF90dsRBDs-deltaNLS): ~2400 µM

B2: 21mer dsRNA, DY781 (dsRNA)
RNA 1: UCACUUUCAUAAUGCUGGAUA
RNA 2: UAUCCAGCAUUAUGAAAGUGA
binding result [1]: no binding

B3: 21mer dsRNA, Cy3 (dsRNA)
RNA 1: UCACUUUCAUAAUGCUGGAUA
RNA 2: UAUCCAGCAUUAUGAAAGUGA
Kd (NF90dsRBDs): 0.433 ± 0.055 µM
Kd (NF90long;NF45-deltaN28): 0.046 ± 0.016 µM

B4: GluA2(R/G) hairpin RNA (structured_RNA)
RNA: CAUUAAGGUGGGUGGAAUAGUAUAACAAUAUGCUAAAUGUUGUUAUAGUAUCCCACCUACCCUGAUG
binding result (NF90long;NF45): binds

B5: 18mer dsRNA, 2'F strand (dsRNA)
RNA 1: UCACUUUCAUAAUGCUGG
RNA 2: CCAGCAUUAUGAAAGUGA
modifications: 2'-F ribose uniformly on strand 1
Kd (NF90dsRBDs-deltaNLS): ~2400 µM
